Test results reported in the Human Domainome abundance scans (Beltran et al. 2025).

B1: Far upstream element-binding protein 1, residues 98 to 169; numbered along this chain, Q96AE4 (parent)
chain: RSVMTEEYKVPDGMVGFIIGRGGEQISRIQQESGCKIQIAPDSGGLPERSCMLTGTPESVQSAKRLLDQIVE

Variants of: B1
Experiment: abundance fitness (aPCA) (normalised: wild type 0, dead -1); higher = more abundant; growth selection in yeast, the domain comes from the species named
Details: Homo sapiens

Abundance fitness: each site, then its substitutions
V3: S -0.087; M 0.017; Q -0.004; E 0.004; G -0.086; I 0.06; F -0.073; P -0.092; L -0.047; K 0.03; H -0.043; Y 0.003; C -0.048; T -0.005; A -0.058; W -0.084; N -0.001; D -0.042
E6: G -0.092; Q 0.054; N -0.177; L -0.033; D -0.104; M -0.01; A -0.14; F -0.081; R -0.02; T 0.029; H -0.081; W -0.048; Y -0.053; C -0.085; P -0.625; K -0.01; I -0.07
I18: Q -0.243; G -0.206; L -0.012; R -0.324; N -0.236; V -0.031; K -0.264; M -0.049; W -0.108; A -0.189; E -0.147; T -0.175; D -0.175; F -0.036; S -0.226; P -0.266; Y -0.21; C -0.145
T5: G -0.101; D -0.149; R -0.012; H -0.055; Q -0.016; W -0.138; I -0.037; L -0.11; F -0.006; A 0; S -0.01; E 0.009; N -0.063; Y -0.096; V -0.049; P -0.301; C -0.072; M -0.012
R1: D 0.042; K -0.081; N 0.043; Y 0.011; G -0.102; L -0.131; E -0.194; I 0.01; P -0.286; A -0.125; V -0.035; W -0.269; S -0.113; H -0.219; C -0.013; Q -0.513
M14: A -0.007; Y -0.025; I -0.037; P -0.27; K -0.066; F -0.016; W -0.093; S -0.026; N -0.105; V -0.01; R -0.131; G -0.097; H -0.12; L -0.013; C -0.011; D -0.082
V15: I -0.074; Y -0.144; G -0.136; F 0.011; M -0.027; N -0.213; T -0.126; D -0.158; S -0.059; Q -0.08; P -0.146; R -0.206; C -0.124; W -0.084; H -0.135; L -0.046
F17: L -0.008; Q 0.044; N 0.022; A 0.045; D 0.015; Y -0.019; I -0.041; G 0.04; S 0.063; T 0; M 0.018; P 0.01; K 0.072; R 0.047; C -0.009; E 0.084; H -0.003; V -0.005; W -0.007
G20: C -0.167; A -0.066; F -0.176; I -0.284; H -0.08; K -0.14; M -0.174; E 0.002; D -0.063
K9: R -0.053; H -0.093; L -0.06; P -0.112; V -0.098; A -0.114; I -0.079; N -0.156; C -0.1; D -0.181; G -0.195; T -0.091; Y -0.084; S -0.108; F -0.033; M -0.043; Q -0.033; W -0.084; E -0.216
I19: A -0.034; T -0.018; Y -0.068; M -0.071; P -0.211; H -0.06; C -0.001; L -0.006; S -0.046; D -0.094; E 0.018; N -0.036; W -0.042; K -0.021; G -0.072; V 0.012; Q -0.03; F -0.048; R -0.038
S2: F -0.026; N -0.143; Y -0.087; K -0.006; I -0.077; Q 0.015; P -0.064; L -0.052; H -0.15; A -0.033; W -0.133; M 0.038; C -0.085; T 0.012; E -0.007; V -0.036; R -0.004; G -0.003
G16: R -0.007; I -0.144; V -0.108; F -0.176; Y -0.118; N -0.037; W -0.09; Q -0.029; M -0.098; K -0.028; L -0.102; D 0.018; C -0.083; A -0.023; H -0.064; E 0.009; T -0.054; P 0.033
M4: P -0.245; N -0.027; C 0.01; H -0.074; S -0.135; G -0.133; R -0.165; I 0.015; K -0.053; W -0.165; D -0.079; F -0.001; A -0.07; L -0.033; Q -0.085; Y -0.007; T -0.06
Y8: M -0.104; T -0.147; R -0.216; V -0.069; A -0.221; H 0.024; G -0.608; I -0.035; K -0.127; D -0.688; C -0.297; N -0.426; W -0.059; F -0.013; L -0.059; E -0.535; P -0.798; Q -0.2
D12: Y -0.045; I -0.038; A 0.019; Q -0.027; C -0.057; S -0.045; G -0.049; V -0.041; P -0.009; N 0.032; L -0.064; F -0.066; M -0.067; H -0.038; R -0.028; K -0.068; E 0.001; W -0.164
E7: V -0.106; C 0.061; T -0.031; L -0.031; W -0.054; G -0.116; F -0.153; M -0.281; A -0.085
G13: H -0.055; W -0.038; K 0; P -0.019; S 0.025; A -0.01; L -0.079; M -0.034; V -0.218; D 0; R -0.007; E 0.041; Y 0.012; F -0.123; Q 0.033; T 0.031; I -0.034
P11: S -0.112; N -0.125; M -0.136; Y -0.127; T -0.124; F -0.206; Q -0.099; V -0.17; E -0.067; G -0.138; H -0.162; L -0.102; R -0.074; D -0.052; C -0.133; I -0.159; A -0.081; W -0.185
V10: L -0.018; S -0.382; M 0.008; W -0.193; R -0.491; Y -0.198; E -0.628; K -0.584; C -0.078; G -0.304; H -0.502; F -0.091; D -0.389; N -0.48; P -0.265; Q -0.581
